In paper PMC7217966:

Assays:
[1] = target: CsgG (Escherichia coli) (UniProt P0AEA2); conditions: cited from earlier work
[2] = target: CsgG-6xHis (E. coli) (UniProt P0AEA2); test: SPR; Biacore 3000, NTA sensor chip activated with NiSO4; CsgG-His (200 nM) immobilised via the His-tag; N22 peptide injected at 50 μl/min, 20 − 1 nM; 10 mM HEPES, 150 mM NaCl, 0.36 mM DDM, pH 8.0; non-activated reference flow cell; 1:1 binding model

Substance	Kd [1] [µM]	Kd [2] [µM]
CsgA N6 peptide N6 (from UniProt P28307)	28.3	–
CsgA N22 peptide	–	0.53
